Assay results as given in paper PMC2191632 (The Journal of Experimental Medicine, 1994).
Where no end group is shown, it is not given here.

How the values were obtained:
[1] = biological target: DRB1*0405 complex (HLA-DR4, DRA-DRB1*0405) (Homo sapiens, UniProt P01903+P01911, A100R/A169T/D86S/F76Y/I96L/K127E/L162R/M171V/N62H/P40V/Q125Y/R42H/S133A/S149N/S66Y/V115G/V209L/W38E); format: binding
[2] = biological target: DRB1*0406 complex (Homo sapiens, UniProt P01903+P01911, A100R/A103E/A169T/F76Y/I96L/K127E/L162R/M171V/N62H/P40V/Q125Y/R42H/S133A/S149N/V209L/W38E); format: binding
[3] = biological target: HLA-DR4 (DRA-DRB1*0406 complex) (human (endogenous in KT13)); assay: radioligand binding
[4] = Solubility of polyalanine-based peptide; format: physicochemical; settings: in words; lysine then inserted at NH2 terminus to increase solubility
[5] = biological target: HLA-DR4 (DRA-DRB1*0405 complex) (human (endogenous in EBWa)); assay: radioligand binding

KAAYAAVAVAA gave an IC50 [1] of 5.1 µM and an IC50 [2] of 12.2 µM.

AAFAAMASAA showed an IC50 [1] of 3.6 µM and an IC50 [2] of 1.1 µM.

AAYAALANAA gave an IC50 [1] of 1.4 µM and an IC50 [2] of 5 µM.

For K-Ins beta p1-18 (…) (peptide), the IC50 [3] was greater than 500 µM.

For AAYAAVAVAA, the Solubility [4] was “not soluble”.

In the case of AALAAIASAA, the IC50 [1] is reported as 11 µM and the IC50 [2] is reported as 8.8 µM.

Molecule KGIVEQCCTSI [K-Ins alpha p1-10 (…)] has an IC50 [3] greater than 500 µM.

With SDPILYRPVAVALDTKGPE [PKM2p99-117 (…), unlabeled] the percent inhibition of 125I-0405BP3 binding at 20 uM [3] was 71% and the percent inhibition of 125I-0405BP3 binding at 20 uM [5] was 90%.

Molecule KSLYQLENYCN [K-Ins alpha p12-21 (…)] has an IC50 [3] of 12 µM.

Molecule GPKPLFRRMSSLVGPTQSFF [CD20p26-45 (…)] has a percent inhibition of 125I-0405BP3 binding at 20 uM [3] of 96% and a percent inhibition of 125I-0405BP3 binding at 20 uM [5] of 90%.

In the case of NELSGEAHKDALGKLY [irrelevant peptide (…), unlabeled], the percent inhibition of 125I-0405BP3 binding at 20 uM [3] is reported as 2% and the percent inhibition of 125I-0405BP3 binding at 20 uM [5] is reported as 1%.

AAKAAKAGAA showed an IC50 [3] greater than 500 µM.

In the case of SPGTGAYYVLLN [0405BP2 (…)], the percent inhibition of 125I-0405BP3 binding at 20 uM [3] is reported as 85% and the percent inhibition of 125I-0405BP3 binding at 20 uM [5] is reported as 93%.

Work on KLVEALYLVCGERGFFYTPKT [K-Ins beta p11-30 (…)] yielded an IC50 [3] of 14.5 µM.

Work on EGQLVSIHSPEEQDFLTKHA [CD23p195-214 (…)] yielded a percent inhibition of 125I-0405BP3 binding at 20 uM [3] of 63% and a percent inhibition of 125I-0405BP3 binding at 20 uM [5] of 59%.

For GSTVFDNLPAPE [… with 10th N to A], the percent by which the substitution inhibited binding (against …) [5] was 70%.

KKTSICSLYQLE [KK-Ins alpha p8-17 (…)] showed an IC50 [3] of 4.1 µM.

GSTVFDNLPNPEIDGDYYGW [0405BP3 (…), unlabeled] showed a percent inhibition of 125I-0405BP3 binding at 20 uM [3] of 96%, a Kd [5] of 0.07 µM and a percent inhibition of 125I-0405BP3 binding at 20 uM [5] of 97%.

Molecule KAAYAAVAVAA has an IC50 [3] of 12.2 µM.

With AAFAAMASAA the IC50 [3] was 1.1 µM.

In the case of AAYAALANAA, the IC50 [3] is reported as 5 µM.

Molecule VPIQRAVYQNVVVNN [0405BP1 (…), unlabeled] has a percent inhibition of 125I-0405BP3 binding at 20 uM [3] of 70% and a percent inhibition of 125I-0405BP3 binding at 20 uM [5] of 103%.

AALAAIASAA showed an IC50 [3] of 8.8 µM.
